# Results published in PMC6474325, “PPR Protein BFA2 Is Essential for the Accumulation of the atpH/F Transcript in Chloroplasts”.
# B1: ndhA 5' end sRNA (ssRNA)
# RNA: UUAUGACGAUACUCGGUAGCAUAGAUAUAA
# B2: atpF sRNA (atpF-atpA intergenic) (ssRNA)
# RNA: UAUAGGCAUUAUUUUUUUUUCU
# Columns and labels:
# BFA2 (MBP-BFA2, mature) [1] = target: T1, BFA2 (MBP-BFA2, mature) (Arabidopsis thaliana, UniProt O65567 62-904); assay: competition; unlabeled ndhA RNA; 1000-fold excess does not affect complex with labeled atpF sRNA; 10 mM HEPES pH 7.5, 20 mM KCl, 2 mM MgCl2, 1 mM DTT, 5% glycerol, 1 ug yeast tRNA, 20 C, 30 min; 6% native PAGE with 2.5% glycerol; conditions: protein: recombinant; tags: MBP (pMAL-c5x); label: none; single strand
# T1 sequence: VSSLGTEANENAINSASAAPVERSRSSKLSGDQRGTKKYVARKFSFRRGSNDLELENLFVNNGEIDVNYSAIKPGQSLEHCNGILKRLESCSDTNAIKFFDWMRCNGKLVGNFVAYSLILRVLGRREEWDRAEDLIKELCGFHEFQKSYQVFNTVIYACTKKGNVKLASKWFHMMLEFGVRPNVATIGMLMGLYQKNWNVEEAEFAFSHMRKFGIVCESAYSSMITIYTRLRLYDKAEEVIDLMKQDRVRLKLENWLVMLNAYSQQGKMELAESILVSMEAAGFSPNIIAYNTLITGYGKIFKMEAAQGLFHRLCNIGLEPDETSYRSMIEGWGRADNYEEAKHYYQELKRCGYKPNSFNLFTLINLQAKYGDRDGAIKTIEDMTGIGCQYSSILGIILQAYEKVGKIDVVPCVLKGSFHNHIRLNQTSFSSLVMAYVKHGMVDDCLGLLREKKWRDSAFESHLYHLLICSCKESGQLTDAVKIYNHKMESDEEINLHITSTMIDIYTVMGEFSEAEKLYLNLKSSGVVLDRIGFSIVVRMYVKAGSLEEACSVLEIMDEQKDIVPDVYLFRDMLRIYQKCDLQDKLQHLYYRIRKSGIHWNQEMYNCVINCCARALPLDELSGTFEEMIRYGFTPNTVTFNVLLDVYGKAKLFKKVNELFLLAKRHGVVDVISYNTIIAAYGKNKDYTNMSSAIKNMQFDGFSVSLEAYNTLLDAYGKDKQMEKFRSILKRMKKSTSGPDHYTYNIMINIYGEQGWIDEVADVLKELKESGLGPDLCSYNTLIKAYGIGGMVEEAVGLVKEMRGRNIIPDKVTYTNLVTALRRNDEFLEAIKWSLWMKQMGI
# BFA2 (MBP-BFA2, mature) [2] = target: T1, BFA2 (MBP-BFA2, mature); assay: EMSA; 1 ug tRNA, 2 mM Mg2+; complex detected at protein 3x molar over RNA; 10 mM HEPES pH 7.5, 20 mM KCl, 2 mM MgCl2, 1 mM DTT, 5% glycerol, 1 ug yeast tRNA, 20 C, 30 min; 6% native PAGE with 2.5% glycerol; conditions: protein: recombinant; tags: MBP (pMAL-c5x); label: 5'-biotin on probe; single strand
binder,measurement,setting,value
B1,binding result,"BFA2 (MBP-BFA2, mature) [1]",no binding
B2,binding result,"BFA2 (MBP-BFA2, mature) [2]",binds
